From PMC11090158

Target: GST-tag DNA polymerase (pol) β, wild-type (human) (UniProt P06746)
Experiment: SPR

Substance: X-ray cross-complementing protein 1 (XRCC1) V86R, 6x-his tag (from UniProt P18887 1-633) (natural protein)
- Kd: 2700 nM
